Assays:
human CLDN18.2 [1] = molecular target: T1, human CLDN18.2 (human); test: FACS on NUGC4_D8 cells
T1 construct: the HEK293 line was made with a GenScript plasmid; also called hCLDN18.2
Method: (§1) Antibodies were assayed for binding affinity by FACS. Test cells include HEK293/hCLDN18.2, HEK293/hCLDN18.1, NUGC4_D8 and Jurkat cells. […] The cell density was adjusted to 10⁶ cells/mL, and 50 μL of the cell suspension was added to each well of a 96-well plate. Antibodies were diluted to different concentrations with FACS buffer, and 50 μL of the antibody dilution was added to each well of the 96-well plate. After 2 h of incubation at 4° C., the plate was washed twice with FACS buffer. […] After 1 h of incubation at 4° C., the plate was washed twice with FACS buffer. The cells were resuspended in fixative solution, and then the fluorescence of the cells was monitored using an FACS instrument (ACEA NovoCyte).

human CLDN18.2 [2] = molecular target: T1, human CLDN18.2; test: cell-based or functional assay
[3] = molecular target: T2, human CD3 on Jurkat cells (human, UniProt P07766 23-207); test: FACS on Jurkat cells (CD3)
T2 construct: whole, on cells; on cells it stands in the whole CD3/TCR complex; also called CD3-expressing cells
T2 sequence (P07766 23-207): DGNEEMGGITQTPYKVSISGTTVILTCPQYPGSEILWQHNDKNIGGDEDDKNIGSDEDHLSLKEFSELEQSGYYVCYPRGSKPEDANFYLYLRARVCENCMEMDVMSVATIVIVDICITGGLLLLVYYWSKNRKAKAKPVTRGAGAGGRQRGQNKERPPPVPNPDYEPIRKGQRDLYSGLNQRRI
Method: as §1

human CLDN18.1 = molecular target: T3, human CLDN18.1 (human, UniProt P56856 1-261); test: FACS on HEK293/hCLDN18.1 cells
T3 construct: whole, on cells; also called hCLDN18.1
T3 sequence (P56856 whole entry): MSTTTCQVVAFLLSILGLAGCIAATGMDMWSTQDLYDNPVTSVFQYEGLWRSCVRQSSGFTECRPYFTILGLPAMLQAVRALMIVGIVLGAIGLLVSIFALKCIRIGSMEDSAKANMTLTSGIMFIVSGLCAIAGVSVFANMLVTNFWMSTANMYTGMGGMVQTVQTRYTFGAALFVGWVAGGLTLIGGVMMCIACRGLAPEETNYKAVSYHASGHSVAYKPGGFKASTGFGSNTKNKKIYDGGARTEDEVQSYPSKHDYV
Method: as §1

[4] = molecular target: T2, human CD3 on Jurkat cells; test: FACS on Jurkat cells
Method: as §1

human CLDN18.2 [5] = molecular target: T1, human CLDN18.2; test: FACS on HEK293/hCLDN18.2 cells
[6] = molecular target: CLDN18.2 of SNU620 cells (methionine to leucine at amino acid 149) (human, UniProt P56856-2 1-261); test: cell-based or functional assay
Chain of CLDN18.2 of SNU620 cells (methionine to leucine at amino acid 149) (P56856 other isoform, or with tags, fused parts or gaps limits assumed): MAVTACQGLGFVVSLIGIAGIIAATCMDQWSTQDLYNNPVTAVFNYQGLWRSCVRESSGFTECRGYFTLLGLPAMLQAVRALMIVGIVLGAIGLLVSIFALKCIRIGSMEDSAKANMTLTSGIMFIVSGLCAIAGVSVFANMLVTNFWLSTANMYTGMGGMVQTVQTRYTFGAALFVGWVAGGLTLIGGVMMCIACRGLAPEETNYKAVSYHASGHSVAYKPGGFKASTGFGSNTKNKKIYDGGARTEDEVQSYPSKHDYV

human CLDN18.2 [7] = molecular target: T1, human CLDN18.2; test: competition FACS on HEK293/hCLDN18.2 cells; competitor 200 nM biotinylated PR004549
Method: (§2) This example is to study the binding of anti-human CLDN18.2 HCAb monoclonal antibodies to the epitope region of human CLDN18.2 antigen. Competitive binding experiments were performed at the cellular level using HEK293/hCLDN18.2 cells overexpressing human CLDN18.2. […] Then suspension of HEK293/hCLDN18.2 cells overexpressing human CLDN18.2 were adjusted to 3×10⁶ cells/mL, seeded 50 L/well. The cells were co-incubated at 4° C. for 2 h. The cells in each well were washed twice with 200 μL of pre-cooled FACS buffer (2% FBS in PBS) and centrifuged at 500 g at 4° C. for 5 min, and then the supernatant was discarded. […] The cells in each well were washed twice with 200 μL of pre-cooled FACS buffer (2% FBS in PBS) and centrifuged at 500 g at 4° C. for 5 min, and then the supernatant was discarded. Finally, the cells in each well were resuspended in 200 μL of pre-cooled FACS buffer, and the fluorescence signal values were read using a BD FACS CANTOII.

human CLDN18.2 [8] = molecular target: T1, human CLDN18.2; test: FACS on NUGC4_D8 cells; remark: listed apart in the source
Method: (§3) The binding affinity of an antibody was detected by FACS using human CLDN18.1-expressing HEK293 cells, human CLDN18.2-expressing HEK293 cells, NUGC4_D8 cells and SNU601 cells endogenously expressing human CLDN18.2 (Cobioer, CBP60507). […] The cell density was adjusted to 10⁶ cells/mL, and 50 μL of the cell suspension was added to each well of a 96-well plate. Antibodies were diluted to different concentrations with FACS buffer, and 50 μL of the antibody dilution was added to each well of the 96-well plate. After 2 h of incubation at 4° C., the plate was washed twice with FACS buffer. […] After 1 h of incubation at 4° C., the plate was washed twice with FACS buffer. The cells were resuspended in fixative solution, and then the fluorescence of the cells was monitored using an FACS instrument (ACEA NovoCyte).

human CLDN18.2 [9] = molecular target: T1, human CLDN18.2; test: FACS on SNU601 cells
Method: as §3

human CLDN18.2 [10] = molecular target: T1, human CLDN18.2; test: competition FACS on HEK293/hCLDN18.2 cells; competitor 10 nM biotinylated PR000400
Method: as §2

| Binder | EC50 (human CLDN18.2 [1]) | TDCC, Titer EC50 (pM), NUGC4_D8 (human CLDN18.2 [2]) | binding result [3] | binding result (human CLDN18.1) | EC50 [4] | EC50 (human CLDN18.2 [5]) | TDCC, Titer EC50 (pM), SNU620 [6] | IC50 (human CLDN18.2 [7]) | Maximum inhibition rate (%) (human CLDN18.2 [7]) | EC50 (human CLDN18.2 [8]) | Emax (MFI) (human CLDN18.2 [8]) | EC50 (human CLDN18.2 [9]) | Emax (MFI) (human CLDN18.2 [9]) | IC50 (human CLDN18.2 [10]) | Maximum inhibition rate (%) (human CLDN18.2 [10]) |
| --- | --- | --- | --- | --- | --- | --- | --- | --- | --- | --- | --- | --- | --- | --- | --- |
| PR005518 (bispecific antibody, structure 2 (2+1 HCAb-Fc-Fab, CD3 VH-CH1 at the C-terminus of one HCAb chain); PR001848 / PR004533; LALA) chain 1: EVQLVESGGGLVQPGGSLRLSCAASGFTFSSYWMHWVRQVPGKGLVWVSRINSDGSRTIYADSVKGRFTISRDNAKNTLYLQMNSLRAEDTAVYYCARGEDHDILTGYPIRGQGTTVTVSSASEPKSSDKTHTCPPCPAPEAAGGPSVFLFPPKPKDTLMISRTPEVTCVVVDVSHEDPEVKFNWYVDGVEVHNAKTKPREEQYNSTYRVVSVLTVLHQDWLNGKEYKCKVSNKALPAPIEKTISKAKGQPREPQVCTLPPSREEMTKNQVSLSCAVKGFYPSDIAVEWESNGQPENNYKTTPPVLDSDGSFFLVSKLTVDKSRWQQGNVFSCSVMHEALHNHYTQKSLSLSPGK chain 2: not shown light: QAVVTQEPSLTVSPGGTVTLTCRSSTGAVTTSNYANWVQQKPGQAPRGLIGGTNKRAPWTPARFSGSLLGDKAALTLLGAQPEDEAEYFCALWYSNLWVFGGGTKLTVLGQPKAAPSVTLFPPSSEELQANKATLVCLISDFYPGAVTVAWKADSSPVKAGVETTTPSKQSNNKYAASSYLSLTPEQWKSHRSYSCQVTHEGSTVEKTVAPTECS | 0.0205 µM | 30.6 pM | binds | no binding | – | – | – | – | – | – | – | – | – | – | – |
| PR005525 (bispecific antibody, human IgG1, lambda, L234A L235A, structure 7 (3+1 Fab-Fc-VH-VH-VH); PR003886 / PR004533; LALA) EVQLVESGGGLVQPGGSLRLSCAASGFTFSSYWMHWVRQVPGKGLVWVSRINSDGSRTIYADSVKGRFTISRDNAKNTLYLQMNSLRAEDTAVYYCARGEDHDILTGYPIRGQGTTVTVSSGGGGSGGGGSGGGGSEVQLVESGGGLVQPGGSLRLSCAASGFTFSSYWMHWVRQVPGKGLVWVSRINSDGSRTIYADSVKGRFTISRDNAKNTLYLQMNSLRAEDTAVYYCARGEDHDILTGYPIRGQGTTVTVSSGGGGSGGGGSGGGGSEVQLVESGGGLVQPGGSLRLSCAASGFTFSSYWMHWVRQVPGKGLVWVSRINSDGSRTIYADSVKGRFTISRDNAKNTLYLQMNSLRAEDTAVYYCARGEDHDILTGYPIRGQGTTVTVSSASEPKSSDKTHTCPPCPAPEAAGGPSVFLFPPKPKDTLMISRTPEVTCVVVDVSHEDPEVKFNWYVDGVEVHNAKTKPREEQYNSTYRVVSVLTVLHQDWLNGKEYKCKVSNKALPAPIEKTISKAKGQPREPQVCTLPPSREEMTKNQVSLSCAVKGFYPSDIAVEWESNGQPENNYKTTPPVLDSDGSFFLVSKLTVDKSRWQQGNVFSCSVMHEALHNHYTQKSLSLSPGK heavy: not shown light: QAVVTQEPSLTVSPGGTVTLTCRSSTGAVTTSNYANWVQQKPGQAPRGLIGGTNKRAPWTPARFSGSLLGDKAALTLLGAQPEDEAEYFCALWYSNLWVFGGGTKLTVLGQPKAAPSVTLFPPSSEELQANKATLVCLISDFYPGAVTVAWKADSSPVKAGVETTTPSKQSNNKYAASSYLSLTPEQWKSHRSYSCQVTHEGSTVEKTVAPTECS | 0.0126 µM | 28.9 pM | – | no binding | 0.0268 µM | – | – | – | – | – | – | – | – | – | – |
| PR005522 (bispecific antibody, human IgG1, lambda, L234A L235A, PR001848 / PR004533; LALA) EVQLVESGGGLVQPGGSLRLSCAASGFTFSSYWMHWVRQVPGKGLVWVSRINSDGSRTIYADSVKGRFTISRDNAKNTLYLQMNSLRAEDTAVYYCARGEDHDILTGYPIRGQGTTVTVSSGGGGSGGGGSGGGGSEVQLVESGGGLVQPGGSLRLSCAASGFTFSSYWMHWVRQVPGKGLVWVSRINSDGSRTIYADSVKGRFTISRDNAKNTLYLQMNSLRAEDTAVYYCARGEDHDILTGYPIRGQGTTVTVSSASEPKSSDKTHTCPPCPAPEAAGGPSVFLFPPKPKDTLMISRTPEVTCVVVDVSHEDPEVKFNWYVDGVEVHNAKTKPREEQYNSTYRVVSVLTVLHQDWLNGKEYKCKVSNKALPAPIEKTISKAKGQPREPQVCTLPPSREEMTKNQVSLSCAVKGFYPSDIAVEWESNGQPENNYKTTPPVLDSDGSFFLVSKLTVDKSRWQQGNVFSCSVMHEALHNHYTQKSLSLSPGK heavy: not shown light: QAVVTQEPSLTVSPGGTVTLTCRSSTGAVTTSNYANWVQQKPGQAPRGLIGGTNKRAPWTPARFSGSLLGDKAALTLLGAQPEDEAEYFCALWYSNLWVFGGGTKLTVLGQPKAAPSVTLFPPSSEELQANKATLVCLISDFYPGAVTVAWKADSSPVKAGVETTTPSKQSNNKYAASSYLSLTPEQWKSHRSYSCQVTHEGSTVEKTVAPTECS | 0.0139 µM | 186 pM | binds | no binding | – | – | – | – | – | – | – | – | – | – | – |
| PR005399 (bispecific antibody, human IgG1, lambda, L234A L235A, structure 1; CD3 Fab from PR003886, CLDN18.2 VH from PR007243; LALA) EVQLVESGGGLVQPGGSLRLSCAASGFTFSSYWMHWVRQVPGKGLVWVSRISSAGSRTIYADSVKGRFTISRDNAKNTLYLQMNSLRAEDTAVYYCARGEDHDILTGYPIRGQGTTVTVSSGGGGSGGGGSGGGGSEVQLVESGGGLVQPGGSLRLSCAASGFTFSSYWMHWVRQVPGKGLVWVSRISSAGSRTIYADSVKGRFTISRDNAKNTLYLQMNSLRAEDTAVYYCARGEDHDILTGYPIRGQGTTVTVSSASEPKSSDKTHTCPPCPAPEAAGGPSVFLFPPKPKDTLMISRTPEVTCVVVDVSHEDPEVKFNWYVDGVEVHNAKTKPREEQYNSTYRVVSVLTVLHQDWLNGKEYKCKVSNKALPAPIEKTISKAKGQPREPQVCTLPPSREEMTKNQVSLSCAVKGFYPSDIAVEWESNGQPENNYKTTPPVLDSDGSFFLVSKLTVDKSRWQQGNVFSCSVMHEALHNHYTQKSLSLSPGK heavy: not shown light: QAVVTQEPSLTVSPGGTVTLTCRSSTGAVTTSNYANWVQQKPGQAPRGLIGGTNKRAPWTPARFSGSLLGDKAALTLLGAQPEDEAEYFCALWYSNLWVFGGGTKLTVLGQPKAAPSVTLFPPSSEELQANKATLVCLISDFYPGAVTVAWKADSSPVKAGVETTTPSKQSNNKYAASSYLSLTPEQWKSHRSYSCQVTHEGSTVEKTVAPTECS | – | 14.8 pM | – | – | 0.0819 µM | 0.0253 µM | 41.1 pM | – | – | – | – | – | – | – | – |
| PR007082 (bispecific antibody, human IgG1, lambda, structure 1; CD3 Fab from PR003886, CLDN18.2 VH from PR007248; AAA) EVQLVESGGGLVQPGGSLRLSCAASGFTFSSYWMHWVRQVPGKGLVWVSRINHDSSRTIYADSVKGRFTISRDNAKNTLYLQMNSLRAEDTAVYYCARGEDHDILTGYPIRGQGTTVTVSSGGGGSGGGGSGGGGSEVQLVESGGGLVQPGGSLRLSCAASGFTFSSYWMHWVRQVPGKGLVWVSRINHDSSRTIYADSVKGRFTISRDNAKNTLYLQMNSLRAEDTAVYYCARGEDHDILTGYPIRGQGTTVTVSSASEPKSSDKTHTCPPCPAPEAAGAPSVFLFPPKPKDTLMISRTPEVTCVVVDVSHEDPEVKFNWYVDGVEVHNAKTKPREEQYNSTYRVVSVLTVLHQDWLNGKEYKCKVSNKALPAPIEKTISKAKGQPREPQVCTLPPSREEMTKNQVSLSCAVKGFYPSDIAVEWESNGQPENNYKTTPPVLDSDGSFFLVSKLTVDKSRWQQGNVFSCSVMHEALHNHYTQKSLSLSPGK heavy: EVQLVESGGGLVQPGGSLKLSCAASGFTFSTYAMNWVRQASGKGLEWVGRIRSKYNNYATYYADSVKDRFTISRDDSKNTAYLQMNSLKTEDTAVYYCTRHGNFGNSYVSWFAYWGQGTLVTVSSASTKGPSVFPLAPSSKSTSGGTAALGCLVKDYFPEPVTVSWNSGALTSGVHTFPAVLQSSGLYSLSSVVTVPSSSLGTQTYICNVNHKPSNTKVDKKVEPKSCDKTHTCPPCPAPEAAGAPSVFLFPPKPKDTLMISRTPEVTCVVVDVSHEDPEVKFNWYVDGVEVHNAKTKPREEQYNSTYRVVSVLTVLHQDWLNGKEYKCKVSNKALPAPIEKTISKAKGQPREPQVYTLPPCREEMTKNQVSLWCLVKGFYPSDIAVEWESNGQPENNYKTTPPVLDSDGSFFLYSKLTVDKSRWQQGNVFSCSVMHEALHNHYTQKSLSLSPGK light: QAVVTQEPSLTVSPGGTVTLTCRSSTGAVTTSNYANWVQQKPGQAPRGLIGGTNKRAPWTPARFSGSLLGDKAALTLLGAQPEDEAEYFCALWYSNLWVFGGGTKLTVLGQPKAAPSVTLFPPSSEELQANKATLVCLISDFYPGAVTVAWKADSSPVKAGVETTTPSKQSNNKYAASSYLSLTPEQWKSHRSYSCQVTHEGSTVEKTVAPTECS | 0.0442 µM | – | – | – | 0.041 µM | – | – | – | – | – | – | – | – | – | – |
| PR004533 (antibody, V domains shown, anti-CLDN18.2 HCAb: VH fused to human IgG1 Fc, no light chain; also called R1029P021E10) VH: EVQLVESGGGLVQPGGSLRLSCAASGFTFSSYWMHWVRQVPGKGLVWVSRINSDGSRTIYADSVKGRFTISRDNAKNTLYLQMNSLRAEDTAVYYCARGEDHDILTGYPIRGQGTTVTVSS | – | – | – | – | – | – | – | 0.0232 µM | 93.7% | 0.025 µM | 183000 MFI | 0.0119 µM | 11300 MFI | 0.0255 µM | 98.6% |
| PR004950 (antibody, V domains shown, anti-CLDN18.2 HCAb: VH fused to human IgG1 Fc, no light chain; also called R1029P021F07) VH: EVQLVESGGGLVQPGGSLRLSCAASGFTFSAYWMHWVRQVPGKGLVWVSRINSDGSRTIYADSVKGRFTISRDNAKNTLYLQMNSLRAEDTAVYYCARGEDHDILTGYPIRGQGTMVTVSS | – | – | – | – | – | – | – | 0.0199 µM | 94.3% | 0.0161 µM | 206000 MFI | 0.0146 µM | 13600 MFI | 0.0235 µM | 98.5% |
| PR004949 (antibody, V domains shown, anti-CLDN18.2 HCAb: VH fused to human IgG1 Fc, no light chain; also called R1029P021C02) VH: EVQLVESGGGLVQPGGSLRLSCAASGFTFSAYWMHWVRQVPGRGLVWVSRINSDGSRTIYADSVKGRFTISRDNAKNTLYLQMNSLRAEDTAVYLCARGEDHDMLTGYPVRGQGTMVTVSS | – | – | – | – | – | – | – | 0.031 µM | 94.2% | 0.0218 µM | 265000 MFI | 0.0128 µM | 18300 MFI | 0.0354 µM | 98.5% |
